Experiments:
Assay in all cases: co-IP; anti-ARMS (mouse, MA1-90667) coupled MagPlex microspheres incubated overnight with cleared RIPA lysates of transfected HEK293 cells; bound TRPV1, ARMS or AKAP79 detected with rabbit antibodies and anti-rabbit-PE on FLEXMAP 3D (MFI); interaction ratio = TRPV1 MFI divided by ARMS MFI; cells untreated or treated with forskolin 50 uM + IBMX 100 uM, H89 10 uM or BPKDi 1 uM
[1] = molecular target: ARMS_(S1526/27) (ARMS mutant keeping only the PKA site S1526/27) (rat) (UniProt Q9EQG6)
[2] = molecular target: ARMS_(S1251/52) (ARMS mutant keeping only the PKA site S1251/52) (rat) (UniProt Q9EQG6)
[3] = molecular target: ARMS_(S882) (ARMS mutant keeping only the PKA site S882) (rat) (UniProt Q9EQG6)
[4] = molecular target: ARMS0 (ARMS with all potential PKA sites mutated to alanine) (rat) (UniProt Q9EQG6)
[5] = molecular target: ARMS_(T903) (ARMS mutant keeping only the PKA site T903) (rat) (UniProt Q9EQG6)
[6] = molecular target: Ankyrin-rich membrane spanning protein (ARMS), wild type (rat) (UniProt Q9EQG6)
[7] = molecular target: ARMS_(S1439/40) (ARMS mutant keeping only the PKA site S1439/40) (rat) (UniProt Q9EQG6)

transient receptor potential vanilloid 1 (TRPV1)-YFP (from UniProt O35433 1-838)
TRPV1 MFI / ARMS MFI in the ARMS precipitate, cells treated with BPKDi [1]: 25%
TRPV1 MFI / ARMS MFI in the ARMS precipitate, cells treated with H89 [1]: 36%
TRPV1 MFI / ARMS MFI in the ARMS precipitate, cells treated with forskolin + IBMX [1]: 63%
TRPV1 MFI / ARMS MFI in the ARMS precipitate, untreated cells [1]: 60%
TRPV1 MFI / ARMS MFI in the ARMS precipitate, cells treated with BPKDi [2]: 5%
TRPV1 MFI / ARMS MFI in the ARMS precipitate, cells treated with H89 [2]: 6%
TRPV1 MFI / ARMS MFI in the ARMS precipitate, cells treated with forskolin + IBMX [2]: 18%
TRPV1 MFI / ARMS MFI in the ARMS precipitate, untreated cells [2]: 15%
TRPV1 MFI / ARMS MFI in the ARMS precipitate, cells treated with BPKDi [3]: 4%
TRPV1 MFI / ARMS MFI in the ARMS precipitate, cells treated with H89 [3]: 5%
TRPV1 MFI / ARMS MFI in the ARMS precipitate, cells treated with forskolin + IBMX [3]: 7%
TRPV1 MFI / ARMS MFI in the ARMS precipitate, untreated cells [3]: 10%
TRPV1 MFI / ARMS MFI in the ARMS precipitate, cells treated with BPKDi [4]: 2%
TRPV1 MFI / ARMS MFI in the ARMS precipitate, cells treated with H89 [4]: 4%
TRPV1 MFI / ARMS MFI in the ARMS precipitate, cells treated with forskolin + IBMX [4]: 6%
TRPV1 MFI / ARMS MFI in the ARMS precipitate, untreated cells [4]: 5%
TRPV1 MFI / ARMS MFI in the ARMS precipitate, cells treated with BPKDi [5]: 4%
TRPV1 MFI / ARMS MFI in the ARMS precipitate, cells treated with H89 [5]: 7%
TRPV1 MFI / ARMS MFI in the ARMS precipitate, cells treated with forskolin + IBMX [5]: 9%
TRPV1 MFI / ARMS MFI in the ARMS precipitate, untreated cells [5]: 12%
TRPV1 MFI / ARMS MFI in the ARMS precipitate, cells treated with BPKDi [6]: 3%
TRPV1 MFI / ARMS MFI in the ARMS precipitate, cells treated with H89 [6]: 4%
TRPV1 MFI / ARMS MFI in the ARMS precipitate, cells treated with forskolin + IBMX [6]: 9%
TRPV1 MFI / ARMS MFI in the ARMS precipitate, untreated cells [6]: 9%
TRPV1 MFI / ARMS MFI in the ARMS precipitate, cells treated with BPKDi [7]: 3%
TRPV1 MFI / ARMS MFI in the ARMS precipitate, cells treated with H89 [7]: 4%
TRPV1 MFI / ARMS MFI in the ARMS precipitate, cells treated with forskolin + IBMX [7]: 6%
TRPV1 MFI / ARMS MFI in the ARMS precipitate, untreated cells [7]: 7%

— article PMC9680306
